The results in this text go back to US20190361034A1.

In assay [1] the target is MHC class II molecules on MHC class II-expressing Raji cells (human). The assay can be described thus: transfer cell ELISA, Raji cells; 1000 ng/ml. On the technique in general: An ELISA detects its analyte on a solid surface through an enzyme-linked reagent.
Assay [2] has the same target. The assay can be described thus: transfer cell ELISA, Raji cells; 0.977 ng/ml.
Assay [3] has the same target. Nature of the assay: BLI; immobilised sample, Raji cells in solution; pH 7.0 control of FIG. 21. In general terms: In BLI a coated tip is dipped into the sample, and binding shifts an interference pattern.
Assay [4] shares this target. Nature of the assay: direct ELISA, plate-immobilised Raji cells; 3% gelatin, 5,000 cells; 500 ng/ml.
The target is the same in assay [5]. The assay can be described thus: direct ELISA, plate-immobilised Raji cells; 0.5% Casein, 2,500 cells; 125 ng/ml.
The target is the same in assay [6]. The assay can be described thus: direct ELISA, plate-immobilised Raji cells; 0.5% Casein, 2,500 cells; 250 ng/ml.
The target is the same in assay [7]. Nature of the assay: direct ELISA, plate-immobilised Raji cells; 3% gelatin, 2,500 cells; 62.5 ng/ml.
The target is the same in assay [8]. The assay can be described thus: direct ELISA, plate-immobilised Raji cells; 3% gelatin, 5,000 cells; 62.5 ng/ml.
The target is the same in assay [9]. Nature of the assay: direct ELISA, plate-immobilised Raji cells; 0.5% Casein, 10,000 cells; 125 ng/ml.
Assay [10] has the same target. The assay can be described thus: direct ELISA, plate-immobilised Raji cells; 0.5% Casein, 10,000 cells; 500 ng/ml.
For assay [11] the target is unchanged. Nature of the assay: direct ELISA, plate-immobilised Raji cells; 0.5% Casein, 2,500 cells; 62.5 ng/ml.
For assay [12] the target is unchanged. Nature of the assay: direct ELISA, plate-immobilised Raji cells; 0.5% Casein, 5,000 cells; 62.5 ng/ml.
Assay [13] has the same target. The assay can be described thus: direct ELISA, plate-immobilised Raji cells; 3% gelatin, 10,000 cells; 1000 ng/ml.
The target is the same in assay [14]. The assay can be described thus: direct ELISA, plate-immobilised Raji cells; 3% gelatin, 2,500 cells; 31.25 ng/ml.
The target is the same in assay [15]. Nature of the assay: direct ELISA, plate-immobilised Raji cells; 3% gelatin, 5,000 cells; 15.625 ng/ml.
Assay [16] shares this target. Nature of the assay: direct ELISA, plate-immobilised Raji cells; 0.5% Casein, 2,500 cells; 15.625 ng/ml.
For assay [17] the target is unchanged. Nature of the assay: direct ELISA, plate-immobilised Raji cells; 0.5% Casein, 5,000 cells; 15.625 ng/ml.
Assay [18] shares this target. Nature of the assay: BLI; immobilised sample, Raji cells in solution; control of FIG. 19 (37° C., 1 day, no H2O2).
Assay [19] shares this target. The assay can be described thus: BLI; IMP321 sample at 150% binding potency, Raji cells in solution; relative to reference standard.
Assay [20] has the same target. The assay can be described thus: transfer cell ELISA, Raji cells; 31.25 ng/ml; plate row D.
Assay [21] has the same target. The assay can be described thus: transfer cell ELISA, Raji cells; 7.813 ng/ml; plate row D.
For assay [22] the target is unchanged. The assay can be described thus: direct ELISA, plate-immobilised Raji cells; 5% BSA, 2,500 cells; 250 ng/ml.
Assay [23] shares this target. Nature of the assay: direct ELISA, plate-immobilised Raji cells; 5% BSA, 5,000 cells; 250 ng/ml.
For assay [24] the target is unchanged. Nature of the assay: direct ELISA, plate-immobilised Raji cells; 10% FBS, 5,000 cells; 500 ng/ml.
Assay [25] shares this target. Nature of the assay: direct ELISA, plate-immobilised Raji cells; 10% FBS, 10,000 cells; 125 ng/ml.
The target is the same in assay [26]. The assay can be described thus: direct ELISA, plate-immobilised Raji cells; 5% BSA, 10,000 cells; 1000 ng/ml.
Assay [27] has the same target. Nature of the assay: direct ELISA, plate-immobilised Raji cells; 10% FBS, 10,000 cells; 62.5 ng/ml.
Assay [28] shares this target. The assay can be described thus: direct ELISA, plate-immobilised Raji cells; 10% FBS, 2,500 cells; 31.25 ng/ml.
For assay [29] the target is unchanged. The assay can be described thus: direct ELISA, plate-immobilised Raji cells; 5% BSA, 2,500 cells; 15.625 ng/ml.
Assay [30] has the same target. The assay can be described thus: direct ELISA, plate-immobilised Raji cells; 5% BSA, 5,000 cells; 15.625 ng/ml.
The target is the same in assay [31]. The assay can be described thus: direct ELISA, plate-immobilised Raji cells; 10% FBS, 10,000 cells; 31.25 ng/ml.
The target is the same in assay [32]. Nature of the assay: direct ELISA, plate-immobilised Raji cells; 10% FBS, 10,000 cells; 15.625 ng/ml.

Take “IMP321, recombinant soluble human LAG-3Ig fusion protein (Fc fusion)”: the OD (ELISA signal) in assay [1] is 2.03 OD; in assay [2] it was 0.018 OD; in assay [4] it was 1.88 OD; in assay [5] it was 0.163 OD; in assay [6] it was 0.231 OD; in assay [7] it was 0.399 OD. The OD (ELISA signal) in assay [8] worked out at 0.464 OD; in assay [9], 0.176 OD; in [10], 0.188 OD; in assay [11] it was 0.135 OD; in [12], 0.131 OD; in [13], 1.97 OD. Further, the OD (ELISA signal) is 0.303 OD in assay [14], 0.316 OD in assay [15], 0.168 OD in [16] and 0.207 OD in assay [17]. The Bioactivity (binding) came out at 95% in assay [3] and 85% in [18]. Further, in [19], the Potency determined by BLI assay came to 150%.
For the substance “IMP321 treated with Peptide-N-Glycosidase F (PNGase F) (Fc fusion)”, the OD (ELISA signal) in [20] worked out at 0.049 OD; in assay [21], 0.02 OD; in assay [22], 0.893 OD; in [23], 1.09 OD; in [24], 1.63 OD; in assay [25], 0.377 OD. In addition, the OD (ELISA signal) is 1.77 OD in assay [26]; 0.29 OD in [27]; 0.294 OD in [28]; 0.281 OD in [29]; 0.274 OD in assay [30]; 0.279 OD in [31]. In addition, in assay [32], the OD (ELISA signal) is 0.333 OD.
